Starred links: 1 amine or outer side, 2 acyl side, 3 side chain; linkers in the order of their positions; H or OH if unused. Non-standard residues stand in square brackets, D forms with d. Groups on a side chain read outwards from the residue. *: point of attachment. C18 diacid = O=C(O)CCCCCCCCCCCCCCCCC(=O)*; γGlu = O=C(O)[C@H](CCC(=O)[*:2])N[*:1]; AEEA = NCCOCCOCC(=O)O; Aib = CC(C)(N)C(=O)O
T1: full-length human GIPR with an N-terminal FLAG tag, overexpressed on HEK-293T cells (human, UniProt P48546 22-466)
T1 sequence (looked up): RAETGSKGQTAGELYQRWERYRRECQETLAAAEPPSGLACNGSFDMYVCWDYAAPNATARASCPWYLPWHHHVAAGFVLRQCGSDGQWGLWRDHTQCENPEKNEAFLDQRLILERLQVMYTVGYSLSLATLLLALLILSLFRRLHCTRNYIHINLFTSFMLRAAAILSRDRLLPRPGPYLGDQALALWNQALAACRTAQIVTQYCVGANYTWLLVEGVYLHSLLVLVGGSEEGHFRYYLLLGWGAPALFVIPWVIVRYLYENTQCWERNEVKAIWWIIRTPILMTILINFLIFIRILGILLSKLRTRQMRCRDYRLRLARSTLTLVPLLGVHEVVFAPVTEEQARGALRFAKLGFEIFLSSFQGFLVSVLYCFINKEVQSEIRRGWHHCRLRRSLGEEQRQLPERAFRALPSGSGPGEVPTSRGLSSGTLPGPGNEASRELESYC

B1: Compound No. 168 (peptide)
peptide: H-Y[Aib]EGTFISDYSI[Aib]LDKAAQAK([AEEA-AEEA-γGlu-γGlu-C18 diacid])FVEWLLAQRG-OH
SMILES: CC[C@H](C)[C@H](NC(=O)[C@H](Cc1ccccc1)NC(=O)[C@@H](NC(=O)CNC(=O)[C@H](CCC(=O)O)NC(=O)C(C)(C)NC(=O)[C@@H](N)Cc1ccc(O)cc1)[C@@H](C)O)C(=O)N[C@@H](CO)C(=O)N[C@@H](CC(=O)O)C(=O)N[C@@H](Cc1ccc(O)cc1)C(=O)N[C@@H](CO)C(=O)N[C@H](C(=O)NC(C)(C)C(=O)N[C@@H](CC(C)C)C(=O)N[C@@H](CC(=O)O)C(=O)N[C@@H](CCCCN)C(=O)N[C@@H](C)C(=O)N[C@@H](C)C(=O)N[C@@H](CCC(N)=O)C(=O)N[C@@H](C)C(=O)N[C@@H](CCCCNC(=O)COCCOCCNC(=O)COCCOCCNC(=O)CC[C@H](NC(=O)CC[C@H](NC(=O)CCCCCCCCCCCCCCCCC(=O)O)C(=O)O)C(=O)O)C(=O)N[C@@H](Cc1ccccc1)C(=O)N[C@H](C(=O)N[C@@H](CCC(=O)O)C(=O)N[C@@H](Cc1c[nH]c2ccccc12)C(=O)N[C@@H](CC(C)C)C(=O)N[C@@H](CC(C)C)C(=O)N[C@@H](C)C(=O)N[C@@H](CCC(N)=O)C(=O)N[C@@H](CCCNC(=N)N)C(=O)NCC(=O)O)C(C)C)[C@@H](C)CC
B2: Compound No. 167 (peptide)
peptide: H-Y[Aib]EGTFISDYSI[Aib]LDKAAQQK([AEEA-AEEA-γGlu-γGlu-C18 diacid])FVEWLLAQRG-OH
SMILES: CC[C@H](C)[C@H](NC(=O)[C@H](Cc1ccccc1)NC(=O)[C@@H](NC(=O)CNC(=O)[C@H](CCC(=O)O)NC(=O)C(C)(C)NC(=O)[C@@H](N)Cc1ccc(O)cc1)[C@@H](C)O)C(=O)N[C@@H](CO)C(=O)N[C@@H](CC(=O)O)C(=O)N[C@@H](Cc1ccc(O)cc1)C(=O)N[C@@H](CO)C(=O)N[C@H](C(=O)NC(C)(C)C(=O)N[C@@H](CC(C)C)C(=O)N[C@@H](CC(=O)O)C(=O)N[C@@H](CCCCN)C(=O)N[C@@H](C)C(=O)N[C@@H](C)C(=O)N[C@@H](CCC(N)=O)C(=O)N[C@@H](CCC(N)=O)C(=O)N[C@@H](CCCCNC(=O)COCCOCCNC(=O)COCCOCCNC(=O)CC[C@H](NC(=O)CC[C@H](NC(=O)CCCCCCCCCCCCCCCCC(=O)O)C(=O)O)C(=O)O)C(=O)N[C@@H](Cc1ccccc1)C(=O)N[C@H](C(=O)N[C@@H](CCC(=O)O)C(=O)N[C@@H](Cc1c[nH]c2ccccc12)C(=O)N[C@@H](CC(C)C)C(=O)N[C@@H](CC(C)C)C(=O)N[C@@H](C)C(=O)N[C@@H](CCC(N)=O)C(=O)N[C@@H](CCCNC(=N)N)C(=O)NCC(=O)O)C(C)C)[C@@H](C)CC
B3: Compound No. 169 (peptide)
peptide: H-Y[Aib]EGTFISDYSI[Aib]LDKAK([AEEA-AEEA-γGlu-C18 diacid])QQDFVEWLLAQRG-OH
SMILES: CC[C@H](C)[C@H](NC(=O)[C@H](Cc1ccccc1)NC(=O)[C@@H](NC(=O)CNC(=O)[C@H](CCC(=O)O)NC(=O)C(C)(C)NC(=O)[C@@H](N)Cc1ccc(O)cc1)[C@@H](C)O)C(=O)N[C@@H](CO)C(=O)N[C@@H](CC(=O)O)C(=O)N[C@@H](Cc1ccc(O)cc1)C(=O)N[C@@H](CO)C(=O)N[C@H](C(=O)NC(C)(C)C(=O)N[C@@H](CC(C)C)C(=O)N[C@@H](CC(=O)O)C(=O)N[C@@H](CCCCN)C(=O)N[C@@H](C)C(=O)N[C@@H](CCCCNC(=O)COCCOCCNC(=O)COCCOCCNC(=O)CC[C@H](NC(=O)CCCCCCCCCCCCCCCCC(=O)O)C(=O)O)C(=O)N[C@@H](CCC(N)=O)C(=O)N[C@@H](CCC(N)=O)C(=O)N[C@@H](CC(=O)O)C(=O)N[C@@H](Cc1ccccc1)C(=O)N[C@H](C(=O)N[C@@H](CCC(=O)O)C(=O)N[C@@H](Cc1c[nH]c2ccccc12)C(=O)N[C@@H](CC(C)C)C(=O)N[C@@H](CC(C)C)C(=O)N[C@@H](C)C(=O)N[C@@H](CCC(N)=O)C(=O)N[C@@H](CCCNC(=N)N)C(=O)NCC(=O)O)C(C)C)[C@@H](C)CC
B4: Compound No. 170 (peptide)
peptide: H-Y[Aib]EGTFISDYSI[Aib]LDKAK([AEEA-AEEA-γGlu-C18 diacid])QQDFVNWLLAQRG-OH
SMILES: CC[C@H](C)[C@H](NC(=O)[C@H](Cc1ccccc1)NC(=O)[C@@H](NC(=O)CNC(=O)[C@H](CCC(=O)O)NC(=O)C(C)(C)NC(=O)[C@@H](N)Cc1ccc(O)cc1)[C@@H](C)O)C(=O)N[C@@H](CO)C(=O)N[C@@H](CC(=O)O)C(=O)N[C@@H](Cc1ccc(O)cc1)C(=O)N[C@@H](CO)C(=O)N[C@H](C(=O)NC(C)(C)C(=O)N[C@@H](CC(C)C)C(=O)N[C@@H](CC(=O)O)C(=O)N[C@@H](CCCCN)C(=O)N[C@@H](C)C(=O)N[C@@H](CCCCNC(=O)COCCOCCNC(=O)COCCOCCNC(=O)CC[C@H](NC(=O)CCCCCCCCCCCCCCCCC(=O)O)C(=O)O)C(=O)N[C@@H](CCC(N)=O)C(=O)N[C@@H](CCC(N)=O)C(=O)N[C@@H](CC(=O)O)C(=O)N[C@@H](Cc1ccccc1)C(=O)N[C@H](C(=O)N[C@@H](CC(N)=O)C(=O)N[C@@H](Cc1c[nH]c2ccccc12)C(=O)N[C@@H](CC(C)C)C(=O)N[C@@H](CC(C)C)C(=O)N[C@@H](C)C(=O)N[C@@H](CCC(N)=O)C(=O)N[C@@H](CCCNC(=N)N)C(=O)NCC(=O)O)C(C)C)[C@@H](C)CC
B5: Compound No. 163 (peptide)
peptide: H-Y[Aib]EGTFISDYSIALDK[Aib]K([AEEA-AEEA-γGlu-C18 diacid])QANFVEWLLAQRG-OH
SMILES: CC[C@H](C)[C@H](NC(=O)[C@H](CO)NC(=O)[C@H](Cc1ccc(O)cc1)NC(=O)[C@H](CC(=O)O)NC(=O)[C@H](CO)NC(=O)[C@@H](NC(=O)[C@H](Cc1ccccc1)NC(=O)[C@@H](NC(=O)CNC(=O)[C@H](CCC(=O)O)NC(=O)C(C)(C)NC(=O)[C@@H](N)Cc1ccc(O)cc1)[C@@H](C)O)[C@@H](C)CC)C(=O)N[C@@H](C)C(=O)N[C@@H](CC(C)C)C(=O)N[C@@H](CC(=O)O)C(=O)N[C@@H](CCCCN)C(=O)NC(C)(C)C(=O)N[C@@H](CCCCNC(=O)COCCOCCNC(=O)COCCOCCNC(=O)CC[C@H](NC(=O)CCCCCCCCCCCCCCCCC(=O)O)C(=O)O)C(=O)N[C@@H](CCC(N)=O)C(=O)N[C@@H](C)C(=O)N[C@@H](CC(N)=O)C(=O)N[C@@H](Cc1ccccc1)C(=O)N[C@H](C(=O)N[C@@H](CCC(=O)O)C(=O)N[C@@H](Cc1c[nH]c2ccccc12)C(=O)N[C@@H](CC(C)C)C(=O)N[C@@H](CC(C)C)C(=O)N[C@@H](C)C(=O)N[C@@H](CCC(N)=O)C(=O)N[C@@H](CCCNC(=N)N)C(=O)NCC(=O)O)C(C)C
B6: Compound No. 171 (peptide)
peptide: H-Y[Aib]EGTFISDYSI[Aib]LDKAK([AEEA-AEEA-γGlu-C18 diacid])QADFVNWLLAQRG-OH
SMILES: CC[C@H](C)[C@H](NC(=O)[C@H](Cc1ccccc1)NC(=O)[C@@H](NC(=O)CNC(=O)[C@H](CCC(=O)O)NC(=O)C(C)(C)NC(=O)[C@@H](N)Cc1ccc(O)cc1)[C@@H](C)O)C(=O)N[C@@H](CO)C(=O)N[C@@H](CC(=O)O)C(=O)N[C@@H](Cc1ccc(O)cc1)C(=O)N[C@@H](CO)C(=O)N[C@H](C(=O)NC(C)(C)C(=O)N[C@@H](CC(C)C)C(=O)N[C@@H](CC(=O)O)C(=O)N[C@@H](CCCCN)C(=O)N[C@@H](C)C(=O)N[C@@H](CCCCNC(=O)COCCOCCNC(=O)COCCOCCNC(=O)CC[C@H](NC(=O)CCCCCCCCCCCCCCCCC(=O)O)C(=O)O)C(=O)N[C@@H](CCC(N)=O)C(=O)N[C@@H](C)C(=O)N[C@@H](CC(=O)O)C(=O)N[C@@H](Cc1ccccc1)C(=O)N[C@H](C(=O)N[C@@H](CC(N)=O)C(=O)N[C@@H](Cc1c[nH]c2ccccc12)C(=O)N[C@@H](CC(C)C)C(=O)N[C@@H](CC(C)C)C(=O)N[C@@H](C)C(=O)N[C@@H](CCC(N)=O)C(=O)N[C@@H](CCCNC(=N)N)C(=O)NCC(=O)O)C(C)C)[C@@H](C)CC

How the values were obtained:
[1] = molecular target: T1, full-length human GIPR with an …; assay: cell-based or functional assay
[2] = molecular target: full-length human GLP-1R with an N-terminal FLAG tag, overexpressed on HEK-293T cells (human, UniProt P43220 24-463); assay: cell-based or functional assay

Binder | Human GIPR cAMP EC50, HEK293T [1] [nM] | Human GLP1R cAMP EC50, HEK293T [2] [nM]
B1 | 0.0009 | 16.6
B2 | 0.0009 | 38
B3 | 0.0008 | 178
Me-Y[Aib]EGTFISDYSIALDKAAQ[Aib]K([AEEA-AEEA-γGlu-γGlu-C18 diacid])FVEWLLAQRG-OH [Compound No. 174] | 0.0004 | 47.9
B4 | 0.0005 | 61.7
YXEGTFISDYSIAXDKAXQQDFVEWLLAQRG (N-terminus H; Aib at 2, 14; Km at 18 = Lys(2OEGgE-C18DA); C-terminus OH) [Compound No. 164] | 0.0002 | > 1000
YXEGTFISDYSIAXDKIXQADFVEWLLAQRG (N-terminus H; Aib at 2, 14; Km at 18 = Lys(2OEGgE-C18DA); C-terminus OH) [Compound No. 166] | 0.0005 | 74.1
YXEGTFISDYSIAXDKAXQADFVEWLLAQRG (N-terminus H; Aib at 2, 14; Km at 18 = Lys(2OEGgE-C18DA); C-terminus OH) [Compound No. 165] | 0.0001 | > 1000
B5 | 0.0002 | 219
Me-Y[Aib]EGTFISDYSIALDKIAQ[Aib]K([AEEA-AEEA-γGlu-γGlu-C18 diacid])FVEWLLAQRG-OH [Compound No. 173] | 0.0003 | 105
B6 | 0.0006 | 83.2
Me-Y[Aib]EGTFISDYSIALDKIAQ[Aib]K([AEEA-AEEA-γGlu-γGlu-C18 diacid])FVNWLLAQRG-OH [Compound No. 175] | 0.0007 | 58.9

Source: patent US20230143604A1, “QW DOSING OF GIP RECEPTOR AGONIST PEPTIDE COMPOUNDS AND USES THEREOF” (TAKEDA PHARMACEUTICAL COMPANY LIMITED, priority 2020, published 2023)
